# Experimental data from IntAct's records for PubMed 21896273.
# B1: Signal peptide peptidase-like 2A (Mus musculus), Q9JJF9 (parent)
# chain: MGLLHSLHAPAAALLWSCLLGLAAAQEAILHASTNGVSSLSKDYCMYYNNNWTRLPSSLENATSLSLMNLTGTALCHLSDIPPDGIRNKAVVVHWGPCHFLEKARIAQEGGAAALLIANNSVLIPSSRNKSTFQNVTVLIAVITQKDFKDMKETLGDDITVKMYSPSWPNFDYTLVVIFVIAVFTVALGGYWSGLIELENMKSVEDAEDRETRKKKDDYLTFSPLTVVVFVVICCIMIVLLYFFYRWLVYVMIAIFCIASSMSLYNCLSALIHRMPCGQCTILCCGKNIKVSLIFLSGLCISVAVVWAVFRNEDRWAWILQDILGIAFCLNLIKTMKLPNFMSCVILLGLLLIYDVFFVFITPFITKNGESIMVELAAGPFENAEKLPVVIRVPKLMGYSVMSVCSVPVSVLGFGDIIVPGLLIAYCRRFDVQTGSSIYYISSTIAYAVGMIITFVVLMVMKTGQPALLYLVPCTLITVSVVAWSRKEMKKFWKGSSYQVMDHLDYSTNEENPVTTDEQIVQQ
# Variants of: B1
# Conditions: with lamp2_human LAMP2, P13473
# lamp2_human LAMP2, P13473, sequence (P13473 whole entry): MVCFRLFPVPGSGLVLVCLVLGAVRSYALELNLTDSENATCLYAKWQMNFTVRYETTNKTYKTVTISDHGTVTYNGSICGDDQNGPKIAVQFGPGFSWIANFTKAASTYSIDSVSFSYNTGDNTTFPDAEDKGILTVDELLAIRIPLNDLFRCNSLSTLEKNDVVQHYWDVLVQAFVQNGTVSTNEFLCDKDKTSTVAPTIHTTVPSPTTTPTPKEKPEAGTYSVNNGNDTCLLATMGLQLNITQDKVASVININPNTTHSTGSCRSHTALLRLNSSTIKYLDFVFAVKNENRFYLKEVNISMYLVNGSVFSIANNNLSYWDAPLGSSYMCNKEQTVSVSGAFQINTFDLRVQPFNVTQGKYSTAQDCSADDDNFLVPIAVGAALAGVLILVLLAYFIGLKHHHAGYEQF
row,effect of a mutation on the interaction,Variant
1,disrupting interaction,MGLLHSLHAPAAALLWSCLLGLAAAQEAILHASTNGVSSLSKDYCMYYNNNWTRLPSSLENATSLSLMNLTGTALCHLSDIPPDGIRNKAVVVHWGPCHFLEKARIAQEGGAAALLIANNSVLIPSSRNKSTFQNVTVLIAVITQKDFKDMKETLGDDITVKMYSPSWPNFDYTLVVIFVIAVFTVALGGYWSGLIELENMKSVEDAEDRETRKKKDDYLTFSPLTVVVFVVICCIMIVLLYFFYRWLVYVMIAIFCIASSMSLYNCLSALIHRMPCGQCTILCCGKNIKVSLIFLSGLCISVAVVWAVFRNEDRWAWILQDILGIAFCLNLIKTMKLPNFMSCVILLGLLLIYDVFFVFITPFITKNGESIMVELAAGPFENAEKLPVVIRVPKLMGYSVMSVCSVPVSVLGFGDIIVPGLLIAYCRRFDVQTGSSIYYISSTIAYAVGMIITFVVLMVMKTGQPALLYLVPCTLITVSVVAWSRKEMKKFWKGSSYQVMDHLDASTNEENPVTTDEQIVQQ [Y506A]

# Variants of: B1
# Conditions: with lamp2_human LAMP2, P13473
# Remark: another data set of the same source
row,effect of a mutation on the interaction,Variant
1,disrupting interaction,MGLLHSLHAPAAALLWSCLLGLAAAQEAILHASTNGVSSLSKDYCMYYNNNWTRLPSSLENATSLSLMNLTGTALCHLSDIPPDGIRNKAVVVHWGPCHFLEKARIAQEGGAAALLIANNSVLIPSSRNKSTFQNVTVLIAVITQKDFKDMKETLGDDITVKMYSPSWPNFDYTLVVIFVIAVFTVALGGYWSGLIELENMKSVEDAEDRETRKKKDDYLTFSPLTVVVFVVICCIMIVLLYFFYRWLVYVMIAIFCIASSMSLYNCLSALIHRMPCGQCTILCCGKNIKVSLIFLSGLCISVAVVWAVFRNEDRWAWILQDILGIAFCLNLIKTMKLPNFMSCVILLGLLLIYDVFFVFITPFITKNGESIMVELAAGPFENAEKLPVVIRVPKLMGYSVMSVCSVPVSVLGFGDIIVPGLLIAYCRRFDVQTGSSIYYISSTIAYAVGMIITFVVLMVMKTGQPALLYLVPCTLITVSVVAWSRKEMKKFWKGSSAQVMDHLDYSTNEENPVTTDEQIVQQ [Y498A]
